Substitutions are numbered along the chain they refer to.

The target of experiment [1] is pre-S1 domain of the L envelope protein on HBV (genotype D) virus (Hepatitis B virus genotype D). In words: cell-based or functional assay.
The target of experiment [2] is pre-S1 domain of the L envelope protein on HBV (genotype B) virus (Hepatitis B virus genotype B). The experiment in a line: cell-based or functional assay.
Experiment [3] addresses pre-S1 domain of the L envelope protein on HBV (genotype C) virus (Hepatitis B virus genotype C). The experiment in a line: cell-based or functional assay.
Experiment [4] has as its target T1, NC36b: peptide comprising residues 4-38 of the pre-S1 domain of HBV L protein with a biotin modification at … (Hepatitis B virus (genotype  …, C-terminal K-Biotin)).
T1 peptide: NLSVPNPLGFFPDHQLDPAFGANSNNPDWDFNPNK
The experiment in a line: ELISA on peptide captured by streptavidin.

B1: A14 (antibody, V domains shown)
VH: QVQLQQSGPGLVKPSQTLSLTCAISGDSVSSNSAAWNWIRQSPSRGLEWLGRTYYRSKWYNDYAVSVKSRITINPDTSKNQFSLQLNSVTPEDTAVYYCARGTRWGMDVWGQGTLVTVSS
VL: QSVLTQPPSASGTPGQRVTISCSGSSSNIGSYYVYWYQQFPGTAPKLLIYGNNQRPSGVPDRFSGSKSGTSASLAITGLQAEDEADYYCQSYDSSLSGVIFGGGTKLTVL
Regarding B1, in experiment [1], the “HBV (genotype D) neutralization activity, against HBIG” value was > 1000 fold and the “IC50 of HBV neutralization, genotype D” value was 0.01 nM. In experiment [2], the “IC50 of HBV neutralization, genotype B” value was found to be 0.08 nM. Also, in experiment [3], the “IC50 of HBV neutralization, genotype C” value was 0.03 nM.

B2: #8 (antibody, V domains shown)
VH: B1 VH
VL: QSVVTQPPSVSAAPGQKVTISCSGSSSNIGNYYVSWYQHLPGTAPKLLIYDNAKRPSGIPDRFSGSKSGTSATLGITGLRAEDEADYYCQSYDNSLSGLVFGGGTKLTVL
For B2, the “HBV (genotype D) neutralization, against A14” value in experiment [1] was determined as 5 fold.

B3: 2H5 (antibody, V domains shown)
VH: B1 VH with A23G, N32K, Y60H, T103Q, R104M, W105G, G106A, M107L, L115T
VL: B1 VL
In the case of B3, the “IC50 in HBV infection assay, against KR127” value in experiment [1] turned out to be 11 fold.

B4: m1Q (antibody, V domains shown)
VH: QVQLVESGGGVVQPGRSLRLSCAASGFTFSSYAMHWVRQAPGKGLEQVAVISYDGSNKYYVDSVKGRFTISRDNSKNTLYLQMNSLRAEDTAVYYCARSTYGMDVWGQGTTVTVSS
VL: DVVMTQSPLSLPVTLGQSASISCRSSQSLVHSDGNTYLNWFQQRPGQSPRRLIYKVSNRDSGVPDRFSGSGSDTDFTLEISRVEAEDVGIYYCMQGTHWWTFGQGTKLDIK
notes: also called m10Q (label of the VL entry)
For the molecule B4, in experiment [4], the binding result is “binds”.

B5: m36 (antibody, V domains shown)
VH: QMQLVQSGGGLVQPGRSLRLSCAASGFTFDDYAMHWVRQAPGKGLEWVSGISWNSGSIGYADSVKGRFTISRDNAKNSLYLQMNSLRAEDTALYYCAKTSYGGAFDIWGQGTMVTVSS
VL: QPVLTQSPSASGTPGQRVTISCSGNTSNIGSYYAYWYQQLPGTAPKLLIYDNNQRPSGIPARFSGSKSGTSASLAISGLQSEDEADYYCATWDDSLNGPVFGGGTKVTVL
Take B5: the binding result in experiment [4] is “binds”.
